Source: article PMC10896721

Experiments:
[1] = target: cynomolgus monkey GLP-1R (cynomolgus monkey)
[2] = target: mouse GLP-1R (mouse) (UniProt O35659)
[3] = target: human GLP-1R (glucagon-like peptide-1 receptor) (human) (UniProt P43220)
[4] = target: T1, human GIPR (glucose-dependent insulinotropic polypeptide receptor) (human) (UniProt P48546)
T1 sequence: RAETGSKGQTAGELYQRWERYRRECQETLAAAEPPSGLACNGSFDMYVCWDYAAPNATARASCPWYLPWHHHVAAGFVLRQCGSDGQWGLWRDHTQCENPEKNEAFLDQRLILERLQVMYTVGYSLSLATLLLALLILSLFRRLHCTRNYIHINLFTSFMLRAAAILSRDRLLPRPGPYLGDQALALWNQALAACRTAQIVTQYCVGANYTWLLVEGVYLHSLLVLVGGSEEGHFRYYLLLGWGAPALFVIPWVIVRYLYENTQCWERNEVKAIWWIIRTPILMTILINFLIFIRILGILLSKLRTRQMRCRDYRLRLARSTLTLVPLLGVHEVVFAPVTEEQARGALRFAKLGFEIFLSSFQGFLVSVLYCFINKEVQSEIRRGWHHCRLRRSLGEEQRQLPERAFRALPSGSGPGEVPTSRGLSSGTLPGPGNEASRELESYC

Sequence of AMG 133 (maridebart cafraglutide) (VH): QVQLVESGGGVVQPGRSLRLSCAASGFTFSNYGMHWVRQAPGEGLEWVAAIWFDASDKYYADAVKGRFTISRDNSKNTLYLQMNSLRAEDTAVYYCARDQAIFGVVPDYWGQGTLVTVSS
Sequence of AMG 133 (maridebart cafraglutide) (VL): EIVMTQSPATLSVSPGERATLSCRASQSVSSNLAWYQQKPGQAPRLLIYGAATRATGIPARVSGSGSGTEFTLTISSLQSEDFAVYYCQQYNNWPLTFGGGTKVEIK
Sequence of UniProt P43220 (P43220 24-463): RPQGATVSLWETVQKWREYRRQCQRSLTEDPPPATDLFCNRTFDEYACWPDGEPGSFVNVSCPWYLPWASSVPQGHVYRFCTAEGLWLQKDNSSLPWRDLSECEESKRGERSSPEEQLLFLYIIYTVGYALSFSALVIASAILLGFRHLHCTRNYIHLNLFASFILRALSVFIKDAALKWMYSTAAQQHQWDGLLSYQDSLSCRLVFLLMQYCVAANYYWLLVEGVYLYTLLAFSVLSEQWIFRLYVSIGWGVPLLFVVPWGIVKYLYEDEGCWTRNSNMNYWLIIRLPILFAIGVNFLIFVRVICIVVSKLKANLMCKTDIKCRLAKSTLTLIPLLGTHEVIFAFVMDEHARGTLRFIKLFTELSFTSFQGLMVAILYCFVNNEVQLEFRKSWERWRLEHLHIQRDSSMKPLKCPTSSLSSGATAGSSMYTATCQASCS
Sequence of UniProt O35659 (O35659 22-463): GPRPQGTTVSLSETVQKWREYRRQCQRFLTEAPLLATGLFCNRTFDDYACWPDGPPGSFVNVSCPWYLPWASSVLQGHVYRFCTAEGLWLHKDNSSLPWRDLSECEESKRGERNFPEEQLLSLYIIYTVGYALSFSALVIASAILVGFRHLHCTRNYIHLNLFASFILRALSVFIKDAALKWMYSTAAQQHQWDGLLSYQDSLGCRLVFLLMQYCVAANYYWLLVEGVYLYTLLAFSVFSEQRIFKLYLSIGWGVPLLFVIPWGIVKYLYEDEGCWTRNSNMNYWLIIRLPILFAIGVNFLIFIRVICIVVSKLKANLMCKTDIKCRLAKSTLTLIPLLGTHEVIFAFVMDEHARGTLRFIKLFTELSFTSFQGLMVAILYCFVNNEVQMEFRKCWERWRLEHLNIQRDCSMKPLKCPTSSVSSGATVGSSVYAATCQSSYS

Row | EC50 of cAMP accumulation in CHO-AM1D cells expressing cynomolgus monkey GLP-1R [1] | EC50 of cAMP accumulation in CHO-K1 cells expressing mouse GLP-1R [2] | EC50 of cAMP accumulation in CHO-K1 cells expressing human GLP-1R [3] | EC50 of cAMP accumulation in HEK 293T cells expressing human GIPR [4] | Substance
1 | 5.7 pM | 123 pM | 24.4 pM |  | AMG 133 (maridebart cafraglutide)
2 |  |  |  | 6.6 pM | Native GIP (glucose-dependent insulinotropic polypeptide) (from UniProt P09681 52-93) (ligand)
